# B1: annexin V-derived peptide pAnxV (annexin V residues 157-164) conjugated to TAT47-57 carrier peptide (peptide)
# peptide: LQANRDPD
# chain: YGKKRRQRRR
# modifications: not checked
# Target: δ-PKC in isolated rat hearts (rat), P09215
# Experiment: cell-based or functional assay
# Chain of δ-PKC in isolated rat hearts (rat), P09215 (P09215 whole entry, stated change not applied): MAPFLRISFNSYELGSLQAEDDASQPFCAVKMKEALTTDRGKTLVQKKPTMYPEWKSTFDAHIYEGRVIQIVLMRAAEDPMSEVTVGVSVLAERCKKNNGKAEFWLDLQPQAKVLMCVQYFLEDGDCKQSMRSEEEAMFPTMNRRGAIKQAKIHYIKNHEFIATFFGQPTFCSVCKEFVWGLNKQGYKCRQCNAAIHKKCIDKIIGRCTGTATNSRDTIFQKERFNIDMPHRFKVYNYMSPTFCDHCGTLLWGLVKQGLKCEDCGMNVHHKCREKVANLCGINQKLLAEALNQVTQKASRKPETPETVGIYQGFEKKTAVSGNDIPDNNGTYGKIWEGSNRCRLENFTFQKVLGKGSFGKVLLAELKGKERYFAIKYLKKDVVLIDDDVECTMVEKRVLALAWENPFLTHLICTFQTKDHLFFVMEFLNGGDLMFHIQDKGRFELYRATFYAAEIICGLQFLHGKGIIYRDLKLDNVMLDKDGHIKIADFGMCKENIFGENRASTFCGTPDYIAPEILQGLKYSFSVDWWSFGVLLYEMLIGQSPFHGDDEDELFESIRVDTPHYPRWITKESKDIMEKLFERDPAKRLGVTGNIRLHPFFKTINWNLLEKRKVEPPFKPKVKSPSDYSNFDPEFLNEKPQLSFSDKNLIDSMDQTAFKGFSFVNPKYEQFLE
binder,measurement,value
B1,creatine phosphokinase (CPK) release in the heart perfusate during reperfusion,> 50 % reduction
same,infarct size after ischemia/reperfusion in isolated rat hearts,70 % reduction

# — patent US20090081786A1, “Peptide sequences for modulation of protein kinase C” (priority 2006, published 2009)
